# Assay results as given in JP2017222678A (dated 2017).
# Positions count from the first letter of the chain named.
# B1: TP-2A2 (Fab, V domains shown)
# VH: QVQLVESGGGLVQPGGSLRLSCAASGFTFSNNAMNWVRQAPGKGLEWVSTISYDGSNTYYADSVKGRFTISRDNSKNTLYLQMNSLRAEDTAVYYCARQAGGWTYSYTDVWGQGTLVTVSS
# VL: DIELTQPPSVSVAPGQTARISCSGDNIRTYYVHWYQQKPGQAPVVVIYGDSKRPSGIPERFSGSNSGNTATLTISGTQAEDEADYYCQSYDSEADSEVFGGGTKLTVLG
# notes: HuCAL Gold human Fab from E. coli TG1
# B2: TP-2B9 (Fab, V domains shown)
# VH: QVQLQQSGPGLVKPSQTLSLTCAISGDSVSSNSAAWGWIRQSPGRGLEWLGMIYHRSKWYNDYAVSVKSRITINPDTSKNQFSLQLNSVTPEDTAVYYCARYSSIGHMDYWGQGTLVTVSS
# VL: DIQMTQSPSSLSASVGDRVTITCRASQSIRSYLAWYQQKPGKAPKLLIYKASNLQSGVPSRFSGSGSGTDFTLTISSLQPEDFAVYYCHQYSDSPVTFGQGTKVEIKR
# notes: as for B1
# B3: TP-2C1 (Fab, V domains shown)
# VH: QVQLVESGGGLVQPGGSLRLSCAASGFTFSPYVMSWVRQAPGKGLEWVSSISSSSSNTYYADSVKGRFTISRDNSKNTLYLQMNSLRAEDTAVYYCARGDSYMYDVWGQGTLVTVSS
# VL: DIELTQPPSVSVAPGQTARISCSGDSIGSYYAHWYQQKPGQAPVLVIYYDSKRPSGIPERFSGSNSGNTATLTISGTQAEDEADYYCQAYTGQSISRVFGGGTKLTVLG
# notes: as for B1
# B4: TP-2D7 (Fab, V domains shown)
# VH: QVQLQQSGPGLVKPSQTLSLTCAISGDSVSSNSAAWGWIRQSPGRGLEWLGLIYYRSKWYNDYAVSVKSRITINPDTSKNQFSLQLNSVTPEDTAVYYCARFGDTNRNGTDVWGQGTLVTVSS
# VL: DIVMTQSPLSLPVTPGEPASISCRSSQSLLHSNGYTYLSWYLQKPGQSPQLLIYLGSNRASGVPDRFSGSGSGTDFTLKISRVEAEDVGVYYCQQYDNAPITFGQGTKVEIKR
# notes: as for B1
# B5: TP-2E3 (Fab, V domains shown)
# VH: B2 VH with H55Y, Y102V, S103N, S104Q, I105Y, G106T, H107S, M108S
# VL: DIALTQPASVSGSPGQSITISCTGTSSDIGGYNYVSWYQQHPGKAPKLMIYGVNYRPSGVSNRFSGSKSGNTASLTISGLQAEDEADYYCSSADKFTMSIVFGGGTKLTVLG
# notes: as for B1
# B6: TP-2E5 (Fab, V domains shown)
# VH: QVQLQQSGPGLVKPSQTLSLTCAISGDSVSSNSAAWSWIRQSPGRGLEWLGMIFYRSKWNNDYAVSVKSRITINPDTSKNQFSLQLNSVTPEDTAVYYCARVNANGYYAYVDLWGQGTLVTVSS
# VL: DIQMTQSPSSLSASVGDRVTITCRASQPIYNSLSWYQQKPGKAPKLLIYGVSNLQSGVPSRFSGSGSGTDFTLTISSLQPEDFAVYYCLQVDNLPITFGQGTKVEIKR
# notes: as for B1
# B7: TP-2F9 (Fab, V domains shown)
# VH: QVQLVESGGGLVQPGGSLRLSCAASGFTFYKYAMHWVRQAPGKGLEWVSGIQYDGSYTYYADSVKGRFTISRDNSKNTLYLQMNSLRAEDTAVYYCARYYCKCVDLWGQGTLVTVSS
# VL: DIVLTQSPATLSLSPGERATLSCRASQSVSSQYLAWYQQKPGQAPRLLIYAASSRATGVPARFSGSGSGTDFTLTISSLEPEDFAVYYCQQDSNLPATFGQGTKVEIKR
# notes: as for B1
# B8: TP-2G2 (Fab, V domains shown)
# VH: QVQLVESGGGLVQPGGSLRLSCAASGFTFSSYAMNWVRQAPGKGLEWVSAILSDGSSTSYADSVKGRFTISRDNSKNTLYLQMNSLRAEDTAVYYCARYPDWGWYTDVWGQGTLVTVSS
# VL: DIELTQPPSVSVAPGQTARISCSGDNIRKFYVHWYQQKPGQAPVLVIYGTNKRPSGIPERFSGSNSGNTATLTISGTQAEDEADYYCQSYDSKFNTVFGGGTKLTVLG
# notes: as for B1
# B9: TP-2G4 (Fab, V domains shown)
# VH: QVQLVESGGGLVQPGGSLRLSCAASGFTFSSYAMTWVRQAPGKGLEWVSNISYSGSNTYYADSVKGRFTISRDNSKNTLYLQMNSLRAEDTAVYYCARVGYYYGFDYWGQGTLVTVSS
# VL: DIELTQPPSVSVAPGQTARISCSGDALRKHYVYWYQQKPGQAPVLVIYGDNNRPSGIPERFSGSNSGNTATLTISGTQAEDEADYYCQSYDKPYPILVFGGGTKLTVLG
# notes: as for B1
# B10: TP-2G5 (Fab, V domains shown)
# VH: B2 VH with G37S, M52F, H55Y, Y102H, S103N, S104P, I105D, G106L, H107G, M108F
# VL: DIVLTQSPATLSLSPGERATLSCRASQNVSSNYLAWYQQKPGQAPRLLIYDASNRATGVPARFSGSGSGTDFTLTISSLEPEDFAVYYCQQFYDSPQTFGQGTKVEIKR
# notes: as for B1
# B11: TP-2G7 (Fab, V domains shown)
# VH: QVQLVESGGGLVQPGGSLRLSCAASGFTFNSYAMSWVRQAPGKGLEWVSNISSNSSNTYYADSVKGRFTISRDNSKNTLYLQMNSLRAEDTAVYYCARKGGGEHGFFPSDIWGQGTLVTVSS
# VL: B1 VL with I27L, R28G, V45L, S51N, K52N, S89T, E93N, A94N, D95E, E97I
# notes: as for B1
# B12: TP-2G9 (Fab, V domains shown)
# VH: QVQLVESGGGLVQPGGSLRLSCAASGFTFNSYAMTWVRQAPGKGLEWVSAIKSDGSNTYYADSVKGRFTISRDNSKNTLYLQMNSLRAEDTAVYYCARNDSGWFDVWGQGTLVTVSS
# VL: DIALTQPASVSGSPGQSITISCTGTSSDLGGFNTVSWYQQHPGKAPKLMIYSVSSRPSGVSNRFSGSKSGNTASLTISGLQAEDEADYYCQSYDLNNLVFGGGTKLTVLG
# notes: as for B1
# B13: TP-2H10 (Fab, V domains shown)
# VH: B2 VH with S33G, M52F, H55R, D62S, Y102Q, S103D, S104G, I105M, H107G, Y110S
# VL: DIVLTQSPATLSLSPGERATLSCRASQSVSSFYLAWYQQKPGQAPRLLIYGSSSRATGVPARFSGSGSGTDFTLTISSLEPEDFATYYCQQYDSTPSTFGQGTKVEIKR
# notes: as for B1
# B14: TP-3A2 (Fab, V domains shown)
# VH: QVQLVESGGGLVQPGGSLRLSCAASGFTFSNYYLSWVRQAPGKGLEWVSGISYNGSSTNYADSVKGRFTISRDNSKNTLYLQMNSLRAEDTAVYYCARMWRYSLGADSWGQGTLVTVSS
# VL: DIELTQPPSVSVAPGQTARISCSGDNIGSRYAYWYQQKPGQAPVVVIYDDSDRPSGIPERFSGSNSGNTATLTISGTQAEDEADYYCAAYTFYARTVFGGGTKLTVLG
# notes: as for B1
# B15: TP-3A3 (Fab, V domains shown)
# VH: QVQLVESGGGLVQPGGSLRLSCAASGFTFNNNAISWVRQAPGKGLEWVSAINSSSSSTSYADSVKGRFTISRDNSKNTLYLQMNSLRAEDTAVYYCARGHHRGHSWASFIDYWGQGTLVTVSS
# VL: DIELTQPPSVSVAPGQTARISCSGDNIGSKYVHWYQQKPGQAPVVVIYEDSDRPSGIPERFSGSNSGNTATLTISGTQAEDEADYYCQSWDKSEGYVFGGGTKLTVLG
# notes: as for B1
# B16: TP-3A4 (Fab, V domains shown)
# VH: QVQLVESGGGLVQPGGSLRLSCAASGFTFSSYWMHWVRQAPGKGLEWVSSISYDSSNTYYADSVKGRFTISRDNSKNTLYLQMNSLRAEDTAVYYCARYGGMDYWGQGTLVTVSS
# VL: DIELTQPPSVSVAPGQTARISCSGDNLRDKYASWYQQKPGQAPVLVIYSKSERPSGIPERFSGSNSGNTATLTISGTQAEDEADYYCSSYTLNPNLNYVFGGGTKLTVLG
# notes: as for B1
# B17: TP-3B3 (Fab, V domains shown)
# VH: B9 VH with A33G, T35H, S54M, Y59N, V99G, G100L, Y101F, Y102P, Y103G, G104Y
# VL: DIELTQPASVSVAPGQTARISCSGDNLRSKYAHWYQQKPGQAPVLVIYGDNNRPSGIPERFSGSNSGNTATLTISGTQAEDEADYYCSAYAMGSSPVFGGGTKLTVLG
# notes: as for B1
# B18: TP-3C1 (Fab, V domains shown)
# VH: QVQLVESGGGLVQPGGSLRLSCAASGFTFSSYSMHWVRQAPGKGLEWVSGISYSSSFTYYADSVKGRFTISRDNSKNTLYLQMNSLRAEDTAVYYCARALGGGVDYWGQGTLVTVSS
# VL: B12 VL
# notes: HuCAL Gold human Fab from E. coli TG1; Shares its VL entry with TP-2G9 and its VH entry with TP-3F2, as the legends print it
# B19: TP-3C2 (Fab, V domains shown)
# VH: QVQLQQSGPGLVKPSQTLSLTCAISGDSVSSSSAAWSWIRQSPGRGLEWLGMIYYRSKWYNHYAVSVKSRITINPDTSKNQFSLQLNSVTPEDTAVYYCARGGSGVMDVWGQGTLVTVSS
# VL: B2 VL with R30T, S31N, A34N, K50D, A51V, H89Q, D93G, S94Y, V96L
# notes: as for B1
# B20: TP-3C3 (Fab, V domains shown)
# VH: B4 VH with L52V, F102A, G103R, D104A, T105K, N106K, R107S, N108G, T110F, V112Y
# VL: DIQMTQSPSSLSASVGDRVTITCRASQSINPYLNWYQQKPGKAPKLLIYAASNLQSGVPSRFSGSGSGTDFTLTISSLQPEDFAVYYCQQLDNRSITFGQGTKVEIKR
# notes: as for B1
# B21: TP-3E1 (Fab, V domains shown)
# VH: QVQLVESGGGLVQPGGSLRLSCAASGFTFSNYAMTWVRQAPGKGLEWVSVISSVGSNTYYADSVKGRFTISRDNSKNTLYLQMNSLRAEDTAVYYCARPTKAGRTWWWGPYMDVWGQGTLVTVSS
# VL: DIELTQPPSVSVAPGQTARISCSGDNIGSYYAYWYQQKPGQAPVLVIYDDSNRPSGIPERFSGSNSGNTATLTISGTQAEDEADYYCQSYDSTGLLVFGGGTKLTVLG
# notes: as for B1
# B22: TP-3F2 (Fab, V domains shown)
# VH: B18 VH
# VL: DIELTQPPSVSVAPGQTARISCSGDNLPSKSVYWYQQKPGQAPVLVIYGDNNRPSGIPERFSGSNSGNTATLTISGTQAEDEADYYCQSWTSRPMVVFGGGTKLTVLG
# notes: as for B1
# Molecular target: T1, ヒトTFPI (human tissue factor pathway inhibitor; American Diagnostica) (human, UniProt P10646 29-304, limits assumed)
# T1 construct: Coated on plates (ELISA) or amine-coupled to a CM5 chip (Biacore); also called h-TFPI; hTFPI
# T1 sequence (looked up): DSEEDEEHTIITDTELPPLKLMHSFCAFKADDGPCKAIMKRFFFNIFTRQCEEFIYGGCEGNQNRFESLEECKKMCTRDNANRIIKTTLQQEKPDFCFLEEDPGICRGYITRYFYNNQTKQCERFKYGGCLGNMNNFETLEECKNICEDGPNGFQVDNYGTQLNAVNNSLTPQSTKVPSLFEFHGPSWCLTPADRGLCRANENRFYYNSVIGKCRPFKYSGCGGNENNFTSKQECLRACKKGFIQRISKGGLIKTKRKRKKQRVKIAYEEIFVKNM
# Assay: ELISA, Fab in bacterial lysate on coated human TFPI
row,Binder,binding result
1,B1,binds
2,B2,binds
3,B3,binds
4,B4,binds
5,B5,binds
6,B6,binds
7,B7,binds
8,B8,binds
9,B9,binds
10,B10,binds
11,B11,binds
12,B12,binds
13,B13,binds
14,B14,binds
15,B15,binds
16,B16,binds
17,B17,binds
18,B18,binds
19,B19,binds
20,B20,binds
21,B21,binds
22,B22,binds
